Experimental data reported in FireProtDB (doi:10.1016/s0022-2836(03)00043-3).

Conditions: Homo sapiens; pH 8.5; 20 °C; Urea; CD; Tris 10 mM; reversible: yes; whole UniProt chain shown

B1: Cyclin-dependent kinase inhibitor 2A wild type, P42771 (protein)
chain: MEPAAGSSMEPSADWLATAAARGRVEEVRALLEAGALPNAPNSYGRRPIQVMMMGSARVAELLLLHGAEPNCADPATLTRPVHDAAREGFLDTLVVLHRAGARLDVRDAWGRLPVDLAEELGHRDVARYLRAAAGGTRGSNHARIDAAEGPSDIPD
With B1 the denaturant m value was 1.72 kcal/mol/M, the “denaturant midpoint (higher = more stable)” value was 2 M and the unfolding free energy was 3.34 kcal/mol.
